This test concerns the target T1, ERK3, amino acids 1-316, bait fused to the Gal4 DNA binding domain (Saccharomyces cerevisiae, UniProt P04386 1-147; Q16659 1-316).
T1 construct: range 1-147;range 1-316; Bait cDNA made by PCR from brain cDNA; also called ERK3 protein kinase
The test is described as follows: yeast two-hybrid. An excerpt:
The new construct was selected directly in the yeast J693 for its ability to drive tryptophane synthesis (genotype of this strain: Mat α, ade2, his3, leu2, trp1, URA3::GAL1-lacZ LYS2::GAL1-HIS3 gal4del gal80del cyhR2). In these yeast cells, the bait is produced as a C-terminal fusion protein with the DNA binding domain of the transcription factor Gal4 (amino acids 1 to 147). A total human brain (person) cDNA library cloned into the yeast expression vector pACT2 was purchased from Clontech (human brain […] cDNA, cat. # HL4004AH), transformed into the yeast strain J692 (genotype of this strain: Mat a, ade2, his3, leu2, trp1, URA3::GAL1-lacZ LYS2::GAL1-HIS3 gal4del ga80del cyhR2), and selected for the ability to drive leucine synthesis. In these yeast cells, each cDNA is expressed as a fusion protein with the transcription activation domain of the transcription factor Gal4 (amino acids 768 to 881) and a 9 amino acid hemagglutinin epitope tag. J693 cells (Mat α type) expressing the bait were then mated with J692 cells ([…]) expressing proteins from the brain library. The resulting diploid yeast cells expressing proteins interacting with the bait protein were selected for the ability to synthesize tryptophan, leucine, histidine, and β-galactosidase. […]

B1: CDK9, amino acids 160-372, prey clone fused to the Gal4 activation domain (other, Saccharomyces cerevisiae;human, UniProt P04386 768-881, looked up, not shown: small tags and cut ends)
chain: ANFNQSGNIADSSLSFTFTNSSNGPNLITTQTNSQALSQPIASSNVHDNFMNNEITASKIDDGNNSKPLSPGWTDQTAYNAFGITTGMFNTTTMDDVYNYLFDDEDTPPNPKKEDGVLKLADFGLARAFSLAKNSQPNRYTNRVVTLWYRPPELLLGERDYGPPIDLWGAGCIMAEMWTRSPIMQGNTEQHQLALISQLCGSITPEVWPNVDNYELYEKLELVKGQKRKVKDRLKAYVRDPYALDLIDKLLVLDPAQRIDSDDALNHDFFWSDPMPSDLKGMLSTHLTSMFEYLAPPRRKGSQITQQSTNQSRNPATTNQTEFERVF
notes: Clone from the human brain cDNA library; also called PITARLE
In the case of B1, the binding result was “binds”.

The values above are taken from patent publication US20020104105A1 (MYRIAD GENETICS, published 2002).
